# Data as given in US20210077575A1, “NANOPARTICLES FOR THE TARGETED DELIVERY OF THERAPEUTIC POLYPEPTIDES” (Cedars-Sinai Medical Center, priority 2018, published 2021).
# B1: GeloninD10: cytotoxic polypeptide gelonin with a C-terminal deca-aspartic acid tag (protein)
# chain: GLDTVSFSTKGATYITYVNFLNELRVKLKPEGNSHGIPLLRKKCDDPGKCFVLVALSNDNGQLAEIAIDVTSVYVVGYQVRNRSYFFKDAPDAAYEGLFKNTIKTRLHFGGSYPSLEGEKAYRETTDLGIEPLRIGIKKLDENAIDNYKPTEIASSLLVVIQMVSEAARFTFIENQIRNNFQQRIRPANNTISLENKWGKLSFQIRTSGANGMFSEAVELERANGKKYYVTAVDQVKPKIALLKFVDKDPKDDDDDDDDDD
# Assay: Nanoparticle size by dynamic light scattering (Example 2)
# Assay type: physicochemical
# Settings: distribution by number; FIG. 2D-F, GeloninD10 series
# Method: The composition comprising the HerPBK10-GFPD10 nanoparticles and the composition comprising the HerPBK10-GeloninD10 were then subjected to dynamic light scattering (DLS) to determine the diameter of the resulting nanoparticles. Solutions of GFPD10 (no HerPBK10), GeloninD10 (no HerPBK10) and HerPBK10 (no GFPD10 or GeloninD10) were also measured by DLS.
molecule,measurement,value
B1,diameter / measured size (DLS),about 2.9 nm
